Test results from article PMC11140114, “Nanobodies as novel tools to monitor the mitochondrial fission factor Drp1” (Life Science Alliance, 2024).

Tests used:
[1] = molecular target: recombinant human dynamin-related protein 1 (Drp1), isoform 1 (Homo sapiens, isoform 1, UniProt O00429)
[2] = molecular target: T1, GFP-labelled Drp1 deletion construct GTPase-MD (Homo sapiens, UniProt O00429); assay: pull-down; domain mapping: D7 or D63 nanotrap (Nb on NHS-sepharose) incubated overnight at 4°C with soluble protein fractions of HEK293 cells transiently expressing GFP-labelled Drp1 constructs; immunoblot with anti-GFP; conditions: one partner purified
T1 construct: Drp1 (DNM1L), human; source: HEK293, transiently transfected, soluble protein fraction

[3] = molecular target: T2, GFP-labelled Drp1 deletion construct GTPase-MD-VD (Homo sapiens, UniProt O00429); assay: as above; conditions: one partner purified
T2 construct: Drp1 (DNM1L), human; source: HEK293, transiently transfected, soluble protein fraction

[4] = molecular target: T3, GFP-labelled Drp1 deletion construct GTPase (Homo sapiens, UniProt O00429); assay: as above; conditions: one partner purified
T3 construct: Drp1 (DNM1L), human; also called N-terminal GTPase domain; source: HEK293, transiently transfected, soluble protein fraction

[5] = molecular target: T4, Drp1 isoform 2, endogenous in HeLa cells (Homo sapiens (HeLa), UniProt O00429-3, strain); assay: affinity purification with mass spectrometry; D7 and D63 nanotraps against GFP-Trap, soluble protein fractions of HEK293, HeLa and U2OS cells, three replicates; label-free quantification; Drp1 captured by the immobilised Nb; conditions: one partner purified
T4 construct: also called isoform 2 of Drp1; source: endogenous, HeLa soluble protein fraction

Sequence of recombinant human dynamin-related protein 1 (Drp1), isoform 1 (O00429 whole entry, canonical isoform): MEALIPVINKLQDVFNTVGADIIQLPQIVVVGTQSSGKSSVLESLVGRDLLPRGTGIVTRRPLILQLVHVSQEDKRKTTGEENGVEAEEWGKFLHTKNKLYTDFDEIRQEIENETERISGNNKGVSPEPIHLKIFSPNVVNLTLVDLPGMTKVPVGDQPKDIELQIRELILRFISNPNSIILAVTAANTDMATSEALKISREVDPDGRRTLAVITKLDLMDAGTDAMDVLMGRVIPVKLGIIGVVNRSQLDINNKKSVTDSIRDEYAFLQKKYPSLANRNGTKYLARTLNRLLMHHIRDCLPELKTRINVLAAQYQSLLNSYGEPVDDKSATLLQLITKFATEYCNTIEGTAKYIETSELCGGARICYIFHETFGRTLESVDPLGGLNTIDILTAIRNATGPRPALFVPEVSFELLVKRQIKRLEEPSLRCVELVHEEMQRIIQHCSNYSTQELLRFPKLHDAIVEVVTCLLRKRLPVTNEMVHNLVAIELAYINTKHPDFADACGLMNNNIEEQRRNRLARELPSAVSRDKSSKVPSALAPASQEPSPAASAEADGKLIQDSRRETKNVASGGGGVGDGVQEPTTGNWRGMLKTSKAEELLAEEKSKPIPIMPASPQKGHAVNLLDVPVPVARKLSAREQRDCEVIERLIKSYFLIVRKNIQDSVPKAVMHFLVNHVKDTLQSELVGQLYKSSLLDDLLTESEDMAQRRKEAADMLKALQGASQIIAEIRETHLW

B1: D187 (VHH)
VHH: HVQLVESGGGLVQAGESLKLSCVASGIPFSSRAMGWYRQTPGKDRELVARISVRGVTFYADSVTGRFAISRDNDRSTLYLQMNSLKSEDTAIYFCAAGDNTQTVLTRPAHWGQGTQVTVSS
binding result [1]: binds

B2: Drp1-specific nanobody D7 (VHH)
VHH: QVQLVESGGGLVQPGGSLRLSCVASGFDFSTYSMTWHRQVLGKERELVASITPGGSRTNVADSVKGRFTISRDNAKNMLYLQMDRLKPEDTGMYYCAQGGYYAEPDYWGKGTRVTVSS
notes: Selected by phage display from an immunised alpaca; also called D7 Nb; D7 nanotrap (immobilised on NHS-sepharose); source: E. coli periplasmic extract for the protein ELISA
binding result [2]: binds | binding result [3]: binds | binding result [4]: binds | binding result [5]: binds

B3: D193 (VHH)
VHH: EVQLVDSGGGLVQSGGSLTLACAASVSIDEFPAMTWYRQATGKQRELVGVITKGGATKLADSAKGRFTISRDNAKNMVYLQMTSLKPDDTAVYYCSVPNKVMGWGPDDWWGQGSQVTVSS
binding result [1]: binds

B4: D219 (VHH)
chain: QVQLVESGGGMVQSGGSLSLSCAASGFAFSLYEMSWIRQAQGRGPEWVASINPGSSRTYYTDSVKGRFTISRDNDKNILYLKMNSLKPEDTALYYCARGRTLGIGISSDKGSQVTVSS
binding result [1]: binds

B5: D49 (VHH)
VHH: EVQLVESGGGWVQPGGSLRLSCSASGFTFRDYVMTWVRQTPGRGLEWVSAIDGSGSKINYLDSVKGRFTISRDNTQAMLYLQMNSLRPDDTAVYYCARKGRGGLGEGTYWGKGTQVTVSS
binding result [1]: binds

B6: D258 (VHH)
VHH: EVQLQESGGESVQPGGSLRLSCVVSGTTFSTVAMGWYREVPGKKRELVARISSRGVTFYSDSVEGRFTISKDNDKSTLYLQMNSLETEDTAMYFCAAAGNSEVVLFRPKYWGQGTPVTVSS
binding result [1]: binds

B7: D246 (VHH)
VHH: EVQLVESGGGLAQPGGSLRLSCAASGPTDNIYTMGWYRQPPGQSRQFVASVVWSTGVKAYAKFVGGRFRITKDSAKRTVDLQMDSLQPEDTAIYFCNLNDRVTPMSERDYWGQGTPVTVSS
binding result [1]: binds

B8: Drp1-specific nanobody D63 (VHH)
VHH: QVQLVESGGDLVQPGGSLKLSCAVSGVSDSLSSFYLMAWHRQAPGKQREMIADIVSGKATYADSVKGRFTISRDNAENTAYLQMNSLKPEDTAVYYCNVLIQNRSTFQSYWGQGTQVTVSS
notes: Selected by phage display from an immunised alpaca; also called D63 Nb; D63 nanotrap (immobilised on NHS-sepharose); source: E. coli periplasmic extract for the protein ELISA
binding result [5]: binds
